According to US20220380421:

Test system: GST-AcrIIA16_Lmo

Myc-tagged SpyCas9-sgRNA
target DNA cleavage by SpyCas9 co-immunoprecipitated with the Acr: SpyCas9 co-purified with AcrIIA16Lmo is not inhibited
